In PMC5343618:
“And” between values parts separate entries of the source, which are not always exact repeats. Equal entries are not always repeated. One block for each substance: values may come before it.

Assays:
[1] = molecular target: RDPE derivative with a C-terminal 6-His tag (RDPE-H) (Ruminococcus sp. 5_1_39BFAA); experiment: cross-linking; in vivo cross-linking of B. subtilis cells with 0.5 mM DSS in PBS pH 8.3, 20 min at 37 °C; cells recovered 1 h in fresh medium; 10% SDS-PAGE with β-mercaptoethanol and anti-His immunoblot of cell and supernatant fractions
[2] = molecular target: RDPE variant G107A (Ruminococcus sp. 5_1_39BFAA); experiment: native gel or EMSA; blue native PAGE (BN-PAGE) of the soluble cytoplasmic fraction and the culture supernatant of B. subtilis after 24 h of cultivation; non-reducing sample buffer, Coomassie blue; mass estimated within ±15%
[3] = molecular target: D-psicose 3-epimerase from Ruminococcus sp. 5_1_39BFAA (RDPE) (Ruminococcus sp. 5_1_39BFAA); experiment: as above
[4] = molecular target: D-psicose 3-epimerase from Ruminococcus sp. 5_1_39BFAA (RDPE) (Ruminococcus sp. 5_1_39BFAA); experiment: native gel or EMSA; soluble protein fractions combined with SDS at 0, 0.5%, 1% and 2% and run on a 10% acrylamide native gel
[5] = molecular target: RDPE variant L184A (Ruminococcus sp. 5_1_39BFAA); experiment: native gel or EMSA; blue native PAGE (BN-PAGE) of the soluble cytoplasmic fraction and the culture supernatant of B. subtilis after 24 h of cultivation; non-reducing sample buffer, Coomassie blue; mass estimated within ±15%
[6] = molecular target: RDPE truncated by a single amino acid from the N-terminus (ΔN1) (Ruminococcus sp. 5_1_39BFAA); experiment: as above
[7] = molecular target: RDPE variant I103A (Ruminococcus sp. 5_1_39BFAA); experiment: as above
[8] = molecular target: RDPE variant V175A (Ruminococcus sp. 5_1_39BFAA); experiment: as above
[9] = molecular target: RDPE variant V106A (Ruminococcus sp. 5_1_39BFAA); experiment: as above
[10] = molecular target: full-length RDPE fused to mCherry (RDPE-mCh) (Ruminococcus sp. 5_1_39BFAA); experiment: as above
[11] = molecular target: RDPE variant D102A (Ruminococcus sp. 5_1_39BFAA); experiment: as above
[12] = molecular target: RDPE variant V180A (Ruminococcus sp. 5_1_39BFAA); experiment: as above
[13] = molecular target: RDPE variant G181A (Ruminococcus sp. 5_1_39BFAA); experiment: as above
[14] = molecular target: RDPE variant 100A (Leu100 to alanine) (Ruminococcus sp. 5_1_39BFAA); experiment: as above
[15] = molecular target: RDPE variant V182A (Ruminococcus sp. 5_1_39BFAA); experiment: as above

stoichiometry N [1]: 4
Substance: RDPE derivative with a C-terminal 6-His tag (RDPE-H) (enzyme)

stoichiometry N [2]: 4
Substance: RDPE variant G107A (enzyme)

stoichiometry N [3]: 4
stoichiometry N [4]: 3 and 2
Substance: D-psicose 3-epimerase from Ruminococcus sp. 5_1_39BFAA (RDPE) (enzyme)

stoichiometry N [5]: 4
Substance: RDPE variant L184A (enzyme)

stoichiometry N [6]: 4
Substance: RDPE truncated by a single amino acid from the N-terminus (ΔN1) (enzyme)

stoichiometry N [7]: 4
Substance: RDPE variant I103A (enzyme)

stoichiometry N [8]: 4
Substance: RDPE variant V175A (enzyme)

stoichiometry N [9]: 4
Substance: RDPE variant V106A (enzyme)

stoichiometry N [10]: 4
Substance: full-length RDPE fused to mCherry (RDPE-mCh) (enzyme)

stoichiometry N [11]: 4
Substance: RDPE variant D102A (enzyme)

stoichiometry N [12]: 4
Substance: RDPE variant V180A (enzyme)

stoichiometry N [13]: 4
Substance: RDPE variant G181A (enzyme)

stoichiometry N [14]: 4
Substance: RDPE variant 100A (Leu100 to alanine) (enzyme)

stoichiometry N [15]: 4
Substance: RDPE variant V182A (enzyme)
